Experimental data as given in patent US20190175744A1 (Merck Sharp & Dohme, published 2019).
Starred links: 1 amine or outer side, 2 acyl side, 3 side chain; linkers in the order of their positions; H or OH if unused. Non-standard residues stand in square brackets, D forms with d. Groups on a side chain read outwards from the residue. No end group written: not given here. *: point of attachment. C20 diacid = O=C(O)CCCCCCCCCCCCCCCCCCC(=O)*; Lys(N3) = [N-]=[N+]=NCCCC[C@H](N)C(=O)O; γGlu = O=C(O)[C@H](CCC(=O)[*:2])N[*:1]; Met(O2) = CS(=O)(=O)CC[C@H](N)C(=O)O; AEEA = NCCOCCOCC(=O)O; Aib = CC(C)(N)C(=O)O

Columns and labels:
Assay in all cases: cell-based or functional assay
[1] = biological target: human glucagon receptor (human, UniProt P47871 26-477)
[2] = biological target: human GLP-1 receptor (human, UniProt P43220 24-463)
[3] = biological target: human Glucagon receptor (GCGR) (human, UniProt P47871 26-477)
[4] = biological target: human GLP-1 receptor (GLP1R) (human, UniProt P43220 24-463)

## HXQGTFTSDKSKYLDERAAQDFVXWLLDT (D-Ser (s) at 2; Nle(εN3) at 24; C-terminal amide) [PEP69]
[1]
  hGCGR_EC50 (cAMP activity assay): 0.31 nM
[2]
  hGLP1R EC50 (cAMP activity assay): 0.16 nM

## H[dS]QGTFTSDK([γGlu-γGlu-C16])SKYLDERAAQDFVQWLLDT-NH2 [Control molecule PEP76 (Table 7)]
[3]
  Incretin Receptor Assay (cAMP) EC50, GCGR (Human): 0.009 nM
[4]
  Incretin Receptor Assay (cAMP) EC50, GLP1R (Human): 0.007 nM

B1: PEP37 (peptide)
peptide: HXQGTFTSDKSKYLDERAAQDFVXWXXDT
modifications: D-Ser (s) at 2; Lys 10 K(γEγEC16); Nle(εN3) at 24; alpha-methyl-L-Leu (αML) at 26; L-methionine sulphone (2) at 27; C-terminal amide
[1]
  hGCGR_EC50 (cAMP activity assay): 0.06 nM
[2]
  hGLP1R EC50 (cAMP activity assay): 0.04 nM

B2: PEP35 (peptide)
peptide: HXQGTFTSDKSKYLDERAAQDXVXWLXDT
modifications: D-Ser (s) at 2; Lys 10 K(γEγEC16); alpha-methyl-L-Phe (αMF) at 22; Nle(εN3) at 24; L-methionine sulphone (2) at 27; C-terminal amide
[1]
  hGCGR_EC50 (cAMP activity assay): 0.05 nM
[2]
  hGLP1R EC50 (cAMP activity assay): 0.05 nM

B3: PEP74 (peptide)
peptide: HXQGTFTSDKSKYLDERAAQDFVXWLLDT
modifications: HsQGTFTSDK(γEγEC16)…le(ϵN3)WLLDT-NH2 (s=D-serine; K(γEγEC16) at 10; Nle(ϵN3)=azidonorleucine at 24; NH2=C-terminal amide)
[4]
  Incretin Receptor Assay (cAMP) EC50, GLP1R (Human): 0.05 nM

## HXEGTFTSDKSKYLDERAAQDFVXWLLDT (D-Ser (s) at 2; Lys 10 K(γEγEC16); Nle(εN3) at 24; C-terminal amide) [PEP75]
[1]
  hGCGR_EC50 (cAMP activity assay): > 5 nM
[2]
  hGLP1R EC50 (cAMP activity assay): 0.07 nM

B4: PEP34 (peptide)
peptide: HXQGTFTSDKSKYLDERAAQXFVXWLXDT
modifications: D-Ser (s) at 2; Lys 10 K(γEγEC16); alpha-methyl-L-Asp (αMD) at 21; Nle(εN3) at 24; L-methionine sulphone (2) at 27; C-terminal amide
[1]
  hGCGR_EC50 (cAMP activity assay): 0.05 nM
[2]
  hGLP1R EC50 (cAMP activity assay): 0.05 nM

B5: PEP32 (peptide)
peptide: HXQGTFTSXKSKYLDERAAQDFVXWLXDT
modifications: D-Ser (s) at 2; alpha-methyl-L-Asp (αMD) at 9; Lys 10 K(γEγEC16); Nle(εN3) at 24; L-methionine sulphone (2) at 27; C-terminal amide
[1]
  hGCGR_EC50 (cAMP activity assay): 0.06 nM
[2]
  hGLP1R EC50 (cAMP activity assay): 0.04 nM

## H[dS]QGTFTSDKSKYLDERAA[Lys(N3)]DFVQWLLDT-NH2 [PEP71]
[1]
  hGCGR_EC50 (cAMP activity assay): 0.12 nM
[2]
  hGLP1R EC50 (cAMP activity assay): 0.06 nM

B6: PEP31 (peptide)
peptide: H[Aib]QGTFTSDYSKYLDARAAK([AEEA-AEEA-γGlu-C20 diacid])DFV[Lys(N3)]WL[Met(O2)]DT-NH2
modifications: N-terminus assumed
SMILES: CC(C)C[C@H](NC(=O)[C@H](Cc1ccc(O)cc1)NC(=O)[C@H](CCCCN)NC(=O)[C@H](CO)NC(=O)[C@H](Cc1ccc(O)cc1)NC(=O)[C@H](CC(=O)O)NC(=O)[C@H](CO)NC(=O)[C@@H](NC(=O)[C@H](Cc1ccccc1)NC(=O)[C@@H](NC(=O)CNC(=O)[C@H](CCC(N)=O)NC(=O)C(C)(C)NC(=O)[C@@H](N)Cc1c[nH]cn1)[C@@H](C)O)[C@@H](C)O)C(=O)N[C@@H](CC(=O)O)C(=O)N[C@@H](C)C(=O)N[C@@H](CCCNC(=N)N)C(=O)N[C@@H](C)C(=O)N[C@@H](C)C(=O)N[C@@H](CCCCNC(=O)COCCOCCNC(=O)COCCOCCNC(=O)CC[C@H](NC(=O)CCCCCCCCCCCCCCCCCCC(=O)O)C(=O)O)C(=O)N[C@@H](CC(=O)O)C(=O)N[C@@H](Cc1ccccc1)C(=O)N[C@H](C(=O)N[C@@H](CCCCN=[N+]=[N-])C(=O)N[C@@H](Cc1c[nH]c2ccccc12)C(=O)N[C@@H](CC(C)C)C(=O)N[C@@H](CCS(C)(=O)=O)C(=O)N[C@@H](CC(=O)O)C(=O)N[C@H](C(N)=O)[C@@H](C)O)C(C)C
[1]
  hGCGR_EC50 (cAMP activity assay): 4.24 nM
[2]
  hGLP1R EC50 (cAMP activity assay): 1.38 nM
